Laboratory results published in patent US10772928B2, “Modulation and detection of a neuronal alternative splicing regulatory network for treatment and diagnosis of neurological disorders” (The Governing Council of the University of Toronto, priority 2014, dated 2020).

Molecular target: T1, nSR100 (Mus musculus, UniProt Q8BKA3)
T1 construct: host or cells: mouse N2A cells
T1 sequence (Q8BKA3 1-608): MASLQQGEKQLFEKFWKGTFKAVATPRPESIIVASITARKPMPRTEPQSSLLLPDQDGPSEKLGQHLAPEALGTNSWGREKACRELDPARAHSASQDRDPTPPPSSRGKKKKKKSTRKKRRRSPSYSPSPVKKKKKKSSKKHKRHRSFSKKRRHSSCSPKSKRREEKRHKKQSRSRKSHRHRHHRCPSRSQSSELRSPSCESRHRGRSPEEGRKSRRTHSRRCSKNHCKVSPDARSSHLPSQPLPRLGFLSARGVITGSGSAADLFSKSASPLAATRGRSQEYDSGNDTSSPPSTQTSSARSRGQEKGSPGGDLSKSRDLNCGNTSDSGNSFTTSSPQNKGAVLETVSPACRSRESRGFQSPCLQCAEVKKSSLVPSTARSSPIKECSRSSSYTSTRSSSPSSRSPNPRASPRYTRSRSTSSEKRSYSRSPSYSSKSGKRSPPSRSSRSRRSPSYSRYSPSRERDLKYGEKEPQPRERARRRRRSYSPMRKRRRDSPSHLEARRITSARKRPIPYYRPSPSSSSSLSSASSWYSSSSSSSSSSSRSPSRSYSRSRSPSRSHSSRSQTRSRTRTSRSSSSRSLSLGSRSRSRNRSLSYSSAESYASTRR
Assay: AP-MS nSR100 interaction partners from mouse N2A cells (Table 5)
Format: binding
Conditions: for AvgP (average of the SAINT scores) / MaxP (maximal SAINT score): bait Srrm4; for FoldChange between the prey Avg spectra of the bait and control purifications: bait Srrm4, 0.1 added to prevent division by 0; for AvgSpec (average number of spectra per replicate): bait Srrm4, 2 replicates; for Spectra (number of spectra for the prey in the purification of the bait): AP-MS; for SpecSum: bait Srrm4, sum of spectra over 2 replicates

[1] = bait Srrm4, biological replicate 1 (first number of the cell)
[2] = bait Srrm4, biological replicate 2 (second number of the cell)

Excerpt: By applying affinity purification coupled to mass-spectrometry (AP-MS), several interaction nSR100 partner proteins were detected that provide insight into mechanisms of post-translational regulation of nSR100 levels.

B1: Smc3 (protein, UniProt Q9CW03 1-1217, looked up)
Structural maintenance of …: MYIKQVIIQGFRSYRDQTIVDPFSSKHNVIVGRNGSGKSNFFYAIQFVLSDEFSHLRPEQRLALLHEGTGPRVISAFVEIIFDNSDNRLPIDKEEVSLRRVIGAKKDQYFLDKKMVTKNDVMNLLESAGFSRSNPYYIVKQGKINQMATAPDSQRLKLLREVAGTRVYDERKEESISLMKETEGKREKINELLKYIEERLHTLEEEKEELAQYQKWDKMRRALEYTIYNQELNETRAKLDELSAKRETSGEKSRQLRDAQQDARDKMEDIERQVRELKTKISAMKEEKEQLSAERQEQIKQRTKLELKAKDLQDELAGNSEQRKRLLKERQKLLEKIEEKQKELAETEPKFNSVKEKEERGIARLAQATQERTDLYAKQGRGSQFTSKEERDKWIKKELKSLDQAINDKKRQIAAIHKDLEDTEANKEKNLEQYNKLDQDLNEVKARVEELDRKYYEVKNKKDELQSERNYLWREENAEQQALAAKREDLEKKQQLLRAATGKAILNGIDSINKVLEHFRRKGINQHVQNGYHGIVMNNFECEPAFYTCVEVTAGNRLFYHIVDSDEVSTKILMEFNKMNLPGEVTFLPLNKLDVRDTAYPETNDAIPMISKLRYNPRFDKAFKHVFGKTLICRSMEVSTQLARAFTMDCITLEGDQVSHRGALTGGYYDTRKSRLELQKDVRKAEEELGELEAKLNENLRRNIERINNEIDQLMNQMQQIETQQRKFKASRDSILSEMKMLKEKRQQSEKTFMPKQRSLQSLEASLHAMESTRESLKAELGTDLLSQLSLEDQKRVDALNDEIRQLQQENRQLLNERIKLEGIITRVETYLNENLRKRLDQVEQELNELRETEGGTVLTATTSELEAINKRVKDTMARSEDLDNSIDKTEAGIKELQKSMERWKNMEKEHMDAINHDTKELEKMTNRQGMLLKKKEECMKKIRELGSLPQEAFEKYQTLSLKQLFRKLEQCNTELKKYSHVNKKALDQFVNFSEQKEKLIKRQEELDRGYKSIMELMNVLELRKYEAIQLTFKQVSKNFSEVFQKLVPGGKATLVMKKGDVEGSQSQDEGEGSGESERGSGSQSSVPSVDQFTGVGIRVSFTGKQGEMREMQQLSGGQKSLVALALIFAIQKCDPAPFYLFDEIDQALDAQHRKAVSDMIMELAVHAQFITTTFRPELLESADKFYGVKFRNKVSHIDVITAEMAKDFVEDDTTHG
In the case of B1, the “AvgP (average of the SAINT scores)” value is reported as 0.91, the “MaxP (maximal SAINT score)” value is reported as 0.96 and the “FoldChange between the prey Avg spectra of the bait and control purifications” value is reported as 7. The “AvgSpec (average number of spectra per replicate)” value was 7, the “Spectra (number of spectra for the prey in the purification of the bait)” value [1] was 6 and the “Spectra (number of spectra for the prey in the purification of the bait)” value [2] was 8. The SpecSum was 14.

B2: Prpf19 (protein, UniProt Q99KP6 2-504, looked up)
Pre-mRNA-processing factor 19: SLICSISNEVPEHPCVSPVSNHVYERRLIEKYIAENGTDPINNQPLSEEQLIDIKVAHPIRPKPPSATSIPAILKALQDEWDAVMLHSFTLRQQLQTTRQELSHALYQHDAACRVIARLTKEVTAAREALATLKPQAGLIVPQAVPSSQPSVVGAGEPMDLGELVGMTPEIIQKLQDKATVLTTERKKRGKTVPEELVKPEELSKYRQVASHVGLHSASIPGILALDLCPSDTNKILTGGADKNVVVFDKSTEQILATLKGHTKKVTSVVFHPSQELVFSASPDATIRIWSVPNTSCVQVVRAHESAVTGLSLHATGDYLLSSSDDQYWAFSDIQTGRVLTKVTDETSGCSLTCAQFHPDGLIFGTGTMDSQIKIWDLKERTNVANFPGHSGPITSIAFSENGYYLATAADDSSVKLWDLRKLKNFKTLQLDNNFEVKSLIFDQSGTYLALGGTDVQIYICKQWTEILHFTEHSGLTTGVAFGHHAKFIASTGMDRSLKFYSL
With B2 the “AvgP (average of the SAINT scores)” value was 0.91, the “MaxP (maximal SAINT score)” value was 1 and the “FoldChange between the prey Avg spectra of the bait and control purifications” value was 5.71. For the same molecule, the “AvgSpec (average number of spectra per replicate)” value was 20, the “Spectra (number of spectra for the prey in the purification of the bait)” value [1] was 11 and the “Spectra (number of spectra for the prey in the purification of the bait)” value [2] was 29. The SpecSum was 40.
